From patent US20250073350A1 (BROAD INSTITUTE, published 2025)

B1: MmMOAP1, bacterially produced (other, mouse, UniProt Q9ERH6 1-352, looked up)
chain: MTLRLLEDWCRGMDMNPRKALLVAGIPPTCGVADIEEALQAGLAPLGEHRLLGRMFRRDENKNVALIGLTVETGSALVPKEIPAKGGVWRVIFKPPDTDSDFLCRLNEFLKGEGMTMGELTRVLGNRNDPLGLDPGIMIPEIRAPMLAQALNEALKPTLQYLRYKKLSVFSGRDPPGPGEEEFESWMFHTSQVMKTWQVSDVEKRRRLIESLRGPAFEIIRVLKINNPFITVAECLKTLETIFGIIDNPRALQVKYLTTYQKTDEKLSAYVLRLEPLLQKLVQKGAIEKEVVNQARLDQVIAGAVHKSVRRELGLPEGSPAPGLLQLLTLIKDKEAEEEEVLLQAELEGYCT
notes: also called modulator of apoptosis 1
B2: MmPNMA5, bacterially produced (other, mouse, UniProt Q5DTT8 1-618, looked up)
chain: MAVALLDDWCKGMDLDPKKAVLIVGIPVQYTEAAINDALKEGLPPLCAYKVIGRMFRREDEAKAVLIELPEVVDYTMMPTHIPAEGGAWEVVVKPRSPDDEFMNKLIYFLRDEGRRIVDVAKALGFSTVPTGKIELKNLDQDKPKGLKSLCNNSTCYKKLKVFSGSPFPGPGEESFETWLEEVTELMQLWQVSEREKKQCLLESLRGSALSIMQALWTSNDSLTVEQCLKALKHIFGNKEDSKVLQFRFLQSSQKPAEKVSDYLLRLEPLLQKAVQQSPLSAHSADSIRLKHVLSQVSMTTGLRGKLSLLDQQGCPPTFLELMKLTRDEEEWESTVVVEEQEQVRRDSSACEAANEVVTQAEDSREVSTQTTGEEMTSVKRRRLLWRHSAGEEGQRKESGFWAESEPDEQKPYVRAQESGNERGAWAVSHPNPKEIEAQDSQEFLPVAGNRDTLTKSWGSPDKGTGDMSVAEGQQGQGKAPNFLLARNDPNKQEQIPHSSVTTKWQDRGECQRLKWGASMITRPQGNPDRSWDTSGSQDGEDGCSELRMPTGTEAAQGVEEPATGLSWAEDTSAWEQARLGRETVPRRGGRRIQPVFRIIYTALGEPHEGSTLESFRE
notes: also called paraneoplastic antigen-like protein 5

Molecular target: the molecule itself
Assay: self-association; size exclusion and electron microscopy of protein produced in E. coli

Protein | binding result
B1 | binds
B2 | binds
